Experimental data taken from US5145837A, “Treatment of arthritis” (Sandoz Ltd., priority 1988, dated 1992).

B1: PTH: parathyroid hormone used to stimulate prostaglandin E2 production (protein, UniProt P01270 32-115, looked up)
Parathyroid hormone: SVSEIQLMHNLGKHLNSMERVEWLRKKLQDVHNFVALGAPLAPRDAGSQRPRKKEDNVLVESHEKSLGEADKADVNVLTKAKSQ
modifications: Parathyroid hormone
notes: parathyroid hormone used to stimulate prostaglandin E2 production

Legend:
Tolerability = conditions: in vivo
[1] = tested on: prostaglandin E2 production in mouse calvariae; experiment: Inhibitory effect on prostaglandin E2 production stimulated by PTH in organ cultures of mouse calvariae; type: cell-based
Protocol: Organ cultures of mouse calvariae are first prepared according to the principles of U. L. Ivey, D. R. Wright, A. H. Tashjian, J. Clin. Invest. 58:1327 (1976) as follows:
Frontal and parietal bones are dissected from neonatal (5 to 6-day-old) mice (strain CD-1), split along the sagittal suture, and cultured in 2 ml of BGJ-medium containing 1 mg/ml bovine serum albumin, penicillin and streptomycin in 35 mm plastic tissue culture wells. […]
The cells are cultured for another 48 hours. During the entire culture period, the multi-well dishes are shaken on a rocker platform (15 oscillations/min) in a humidified atmosphere of 5% CO2 in air at 37° C. The calvaria-conditioned medium is harvested and placed at 4° C.
An aliquot of the medium is then assayed for prostaglandin E2 using a standard radioimmunossay. Prostaglandin E2 levels are reduced.

Molecule | tolerated dose (Tolerability) [mg] | PGE2 synthesis ([1]; PTH 10^-7 M alone (so in the source)) [pg/mL] | PGE2 synthesis ([1]; PTH 10^-10 M alone) [pg/mL]
C[C@@H](O)[C@@H]1NC(=O)[C@H](CCCCN)NC(=O)[C@@H](Cc2c[nH]c3ccccc23)NC(=O)[C@H](Cc2ccccc2)NC(=O)[C@@H](NC(=O)[C@H](N)Cc2ccccc2)CSSC[C@@H](C(=O)N[C@H](CO)[C@@H](C)O)NC1=O [Compound IVa] | ≥ 1 |  | 
B1 |  | 340 | 50
